Measurements published in US20200249231.

Key:
[1] = biological target: T1, NYRFK (5-mer on peptide array)
T1 chain: NYRFK

[2] = biological target: T2, Z-[GGGMLAQGSGGG]
T2 chain: GGGMLAQGSGGG

[3] = biological target: T3, Z-[GGGRYRSKGGGG]
T3 chain: GGGRYRSKGGGG

[4] = biological target: T4, EWIAQ (5-mer on peptide array)
T4 chain: EWIAQ

[5] = biological target: T5, Z-[GGGARSKLGGGG]
T5 chain: GGGARSKLGGGG

[6] = biological target: T6, Z-[GGGAYRTKGGGG]
T6 chain: GGGAYRTKGGGG

[7] = biological target: T7, FYKYK (5-mer on peptide array)
T7 chain: FYKYK

[8] = biological target: T8, YRQSR (5-mer on peptide array)
T8 chain: YRQSR

[9] = biological target: T9, DWYLQ (5-mer on peptide array)
T9 chain: DWYLQ

[10] = biological target: T10, Z-[GGGRYSQRGGGG]
T10 chain: GGGRYSQRGGGG

[11] = biological target: T11, Z-[GGGRYRQRGGGG]
T11 chain: GGGRYRQRGGGG

[12] = biological target: T12, APRYRQRAA (9-mer on peptide array)
T12 chain: APRYRQRAA

[13] = biological target: T13, YQKWK (5-mer on peptide array)
T13 chain: YQKWK

[14] = biological target: T14, Thermus thermophilus SlyD FKBP domain with S. mobaraensis MTG Q-tag DYALQ instead of RYRQR
T14 chain: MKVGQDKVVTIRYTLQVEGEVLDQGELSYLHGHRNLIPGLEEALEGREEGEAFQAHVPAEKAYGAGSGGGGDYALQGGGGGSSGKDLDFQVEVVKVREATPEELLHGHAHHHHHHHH

[15] = biological target: T15, Z-[GGGYKYRQGGGG]
T15 chain: GGGYKYRQGGGG

[16] = biological target: T16, ARSKL (5-mer on peptide array)
T16 chain: ARSKL

[17] = biological target: T17, FRQRG (5-mer on peptide array)
T17 chain: FRQRG

[18] = biological target: T18, QRQRQ (5-mer on peptide array)
T18 chain: QRQRQ

[19] = biological target: T19, WYALQ (5-mer on peptide array)
T19 chain: WYALQ

[20] = biological target: T20, KYRYK (5-mer on peptide array)
T20 chain: KYRYK

[21] = biological target: T21, Z-[GGGFRQRGGGGG]
T21 chain: GGGFRQRGGGGG

[22] = biological target: T22, RYGKS (5-mer on peptide array)
T22 chain: RYGKS

[23] = biological target: T23, QRQTR (5-mer on peptide array)
T23 chain: QRQTR

[24] = biological target: T24, DWALQ (5-mer on peptide array)
T24 chain: DWALQ

[25] = biological target: T25, Z-[GGGRYGKSGGGG]
T25 chain: GGGRYGKSGGGG

[26] = biological target: T26, WQRQR (5-mer on peptide array)
T26 chain: WQRQR

[27] = biological target: T27, AYRQR (5-mer on peptide array)
T27 chain: AYRQR

B1: Kutzneria albida microbial transglutaminase, activated enzyme (KalbTGt3) (protein)
chain: APLAPPLAEDRSYRTWRVEDYVEAWERYHGREMTEDERENLARGCIGVTVVNLNREDLSNPPLNLSFGSLRTAEAVQAALNKIVDTHPSPAQYEAAVAKDPILKRLKNVVKALPSWIDSAKLKASIFSKRFYSWQNPDWSEERAHTTYRPDRETDQVDMSTYRYRARPGYVNFDYGWFDQDTNTWWHANHEEPRMVVYQSTLRHYSRPLQDFDEQVFTVAFAKKDGGGSGHHHHHHHH
[1]
  5-mer peptide array, incorporation of biotinylated glutamine donor Z-APRYRQRAAGGG-PEG-biotin: the top 17 lysine-donor substrates identified on the 5-mer peptide array with KalbTG
[2]
  GLDH-coupled activity assay: KalbTG exhibited no activity with preferred S. mobaraensis MTG substrates DYALQ (SEQ ID NO: 22) and MLAQG (SEQ ID NO: 13)
  Reaction rate in solution (pmol/s), GLDH-coupled assay: -0.11 pmol/s
[3]
  Reaction Rate in Solution (pmol s^-1), GLDH-coupled assay with 200 µM glutamine donor: 3.26 pmol/s
[4]
  5-mer peptide array signal with KalbTG: exhibited relatively lower signal on the KalbTG array
[5]
  Reaction Rate in Solution (pmol s^-1), GLDH-coupled assay with 200 µM glutamine donor: 3.87 pmol/s
[6]
  Reaction Rate in Solution (pmol s^-1), GLDH-coupled assay with 200 µM glutamine donor: 3.65 pmol/s
[7]
  5-mer peptide array, incorporation of biotinylated glutamine donor Z-APRYRQRAAGGG-PEG-biotin: the top 17 lysine-donor substrates identified on the 5-mer peptide array with KalbTG
[8]
  5-mer peptide array, incorporation of biotinylated amine donor: the top 22 glutamine-donor substrates identified on the 5-mer peptide array with KalbTG
[9]
  5-mer peptide array signal with KalbTG: exhibited relatively lower signal on the KalbTG array
[10]
  Reaction rate in solution (pmol/s), GLDH-coupled assay: 3.22 pmol/s
[11]
  Reaction rate in solution (pmol/s), GLDH-coupled assay: 3.6 pmol/s
[12]
  peptide array, second round of maturation: A second round of maturation on the peptide array yielded APRYRQRAA (SEQ ID NO:24) as the top performing 9-mer substrate
[13]
  5-mer peptide array, incorporation of biotinylated glutamine donor Z-APRYRQRAAGGG-PEG-biotin: the top 17 lysine-donor substrates identified on the 5-mer peptide array with KalbTG
[14]
  labeling with KalbTG K-tag-Cy3 (SDS-PAGE, in-gel fluorescence): showed no incorporation of label when incubated with KalbTG
[15]
  Reaction rate in solution (pmol/s), GLDH-coupled assay: 4 pmol/s
[16]
  Array signal (log2): 12 log2
[17]
  5-mer peptide array, incorporation of biotinylated amine donor: the top 22 glutamine-donor substrates identified on the 5-mer peptide array with KalbTG
  Array signal (log2): 8.82 log2
[18]
  5-mer peptide array, incorporation of biotinylated amine donor: the top 22 glutamine-donor substrates identified on the 5-mer peptide array with KalbTG
  Array signal (log2): 8.77 log2
[19]
  5-mer peptide array signal with KalbTG: exhibited relatively lower signal on the KalbTG array
[20]
  5-mer peptide array, incorporation of biotinylated glutamine donor Z-APRYRQRAAGGG-PEG-biotin: the top 17 lysine-donor substrates identified on the 5-mer peptide array with KalbTG
[21]
  Reaction rate in solution (pmol/s), GLDH-coupled assay: 2.11 pmol/s
[22]
  Array signal (log2): 12.4 log2
[23]
  5-mer peptide array, incorporation of biotinylated amine donor: the top 22 glutamine-donor substrates identified on the 5-mer peptide array with KalbTG
[24]
  5-mer peptide array signal with KalbTG: exhibited relatively lower signal on the KalbTG array
[25]
  Reaction Rate in Solution (pmol s^-1), GLDH-coupled assay with 200 µM glutamine donor: 2.66 pmol/s
[26]
  5-mer peptide array, incorporation of biotinylated amine donor: the top 22 glutamine-donor substrates identified on the 5-mer peptide array with KalbTG
[27]
  5-mer peptide array, incorporation of biotinylated amine donor: the top 22 glutamine-donor substrates identified on the 5-mer peptide array with KalbTG
